Data on two molecules can be found in publication PMC3553676.

The target in data set [1] is T1, Ku (Mycobacterium smegmatis, UniProt A0R3S7 1-318).
T1 sequence: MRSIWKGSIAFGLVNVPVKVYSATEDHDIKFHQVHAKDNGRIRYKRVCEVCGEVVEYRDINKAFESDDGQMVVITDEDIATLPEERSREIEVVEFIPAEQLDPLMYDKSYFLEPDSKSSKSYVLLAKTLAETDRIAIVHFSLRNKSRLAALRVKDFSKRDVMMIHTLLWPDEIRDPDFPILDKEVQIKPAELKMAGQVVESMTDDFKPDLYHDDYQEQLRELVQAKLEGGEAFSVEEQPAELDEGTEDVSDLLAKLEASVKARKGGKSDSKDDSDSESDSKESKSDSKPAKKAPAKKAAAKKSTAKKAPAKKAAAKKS
As to the kind of experiment: EMSA.

For data set [2], the target named is T1, Ku. The experiment in a line: EMSA. This is another data set of the same source. A general note: A gel shift assay detects complexes by their altered migration in electrophoresis.

B1: 21/34 nt hairpin substrate (structured_DNA)
DNA 1: GTTTTTAGTTTATTGGGCGCG
DNA 2: CGCGCCCAGCTTTCCCAGCTAATAAACTAAAAAC
As for B1, the binding result in data set [1] was “binds”.

B2: 37 bp DNA (dsDNA)
DNA 1: CCTAGGCTACACCTACTCTTTGTAAGAATTAAGCTTC
DNA 2: GAAGCTTAATTCTTACAAAGAGTAGGTGTAGCCTAGG
One may read the Kd as a measure of binding affinity in units of concentration. In the case of B2, the Kd in data set [2] was 8.6 ± 0.5 nM.
